Experimental data reported in patent publication US11274126B2, “pH-sensitive cyclic peptides” (University of Rhode Island Board of Trustees, priority 2016, dated 2022).

Tests used:
HeLa cells [1] = assay: Fluorescent microscopy with Trypan Blue quenching; type: cell-based, Human; conditions: 5 μM, 30 min at pH 6.2 versus 7.4
Description: HeLa cells (8,000 cells per dish) were seeded in the center of a 35-mm dish with a 10-mm glass-bottom window coated with collagen (MatTek Corp). Next day cells were incubated with 5 μM of FITC-labeled c[E4W5C] (SEQ ID NO: 5) peptide for 30 min in DMEM medium without FBS at pH 7.4 or 6.2. Cells were washed 5 times at pH 7.4 and 0.4% Trypan Blue was added for 5 min ( 1/10 of the total volume). Fluorescent images were acquired with a Retiga CCD camera (Qimaging) mounted to an inverted Olympus IX71 microscope (Olympus America, Inc.).

[2] = Steady-state tryptophan fluorescence of peptides in buffer and with POPC liposomes; type: physicochemical; conditions: for S, normalized area under the spectra, Pep-PC, pH3: POPC liposomes pH 3; for S, normalized area under the spectra, Pep-PC, pH3 / S, normalized area under the spectra, Pep-PC, pH8: normalized to peptide at pH 8 without POPC; for S, normalized area under the spectra, Pep-PC, pH8: POPC liposomes pH 8; for λmax, Pep-PC, pH3: in the presence of POPC liposomes at pH 3; for λmax, Pep-PC, pH3 / λmax, Pep-PC, pH8 / λmax, maximum position of the fluorescence spectrum, Pep, pH8: excitation 280 nm; for λmax, Pep-PC, pH8: in the presence of POPC liposomes at pH 8; for λmax, maximum position of the fluorescence spectrum, Pep, pH8: peptide in phosphate buffer pH 8, no liposomes
Description: Liposomes such as Large Unilamellar Vesicles (LUVs) were prepared by extrusion. POPC, 1-palmitoyl-2-oleoyl-sn-glycero-3-phosphocholine (Avanti Polar Lipids), or a mixture of POPC with 0.5% of 18:1 NBD-PE, 1,2-dioleoyl-sn-glycero-3-phosphoethanolamine-N-7-nitro-2-1,3-benzoxadiazol-4-yl ammonium salt (Avanti Polar Lipids) were dissolved in chloroform, desolvated on a rotary evaporator, and dried under high vacuum for several hours. The phospholipid film was then rehydrated in 10 mM phosphate buffer pH 8.0, vortexed until the lipid bilayer was completely dissolved, and repeatedly (15-21 times) extruded through the membranes with 50 nm pore sizes to obtain LUVs.
Freshly prepared peptides and POPC vesicles were mixed to have 5 μM of a peptide and 1.25 mM of lipids in the final solution. Steady-state fluorescence measurements were carried out on a PC1 spectrofluorometer (ISS, Inc.) under temperature control at 25° C. Tryptophan fluorescence was excited at 280 nm (there is no Phe or Tyr in the peptides) and recorded with the excitation and emission slits set at 1 nm. The polarizers in the excitation and emission paths were set at the “magic” angle (54.7o from the vertical orientation) and vertically (0°), respectively. Steady state CD measurements were carried out in MOS 450 spectropolarimeter (Bio-Logic, Inc.) with the same concentrations of peptide and lipids as it were used in fluorescence measurements.

[3] = Dual quenching (acrylamide / 10-DN); type: physicochemical; conditions: POPC liposomes; for percentage of fluorescence quenching, Pep-PC + 10-DN pH3 / percentage of fluorescence quenching, Pep-PC + AC pH3: pH 3; for percentage of fluorescence quenching, Pep-PC + 10-DN pH8 / percentage of fluorescence quenching, Pep-PC + AC pH8: pH 8; for percentage of fluorescence quenching, Pep-PC + AC pH3 / percentage of fluorescence quenching, Pep-PC + AC pH8: acrylamide
Description: POPC liposomes without and with 10% of the lipids replaced by 10-doxylnonadecane (10-DN) (Avanti Polar Lipids) were prepared in 10 mM citrate-phosphate buffer pH 8.0. Peptides and POPC liposomes were mixed to generate final concentrations of 7 μM peptide and 2.1 mM POPC without and with 10-DN. […] To the samples of POPC liposomes containing no 10-DN, acrylamide (Sigma-Aldrich) was added to have a final concentration of 235 mM in solution. Concentration of peptides in all samples was kept constant. To observe quenching of tryptophan fluorescence by 10-DN or acrylamide, the tryptophan fluorescence was recorded as described above. The appropriate POPC blanks were measured and subtracted from the measured spectra before analysis. The percentage of quenching was calculated.
To establish localization of the peptides within a lipid bilayer of the membrane, a dual quenching assay (Caputo G A & London E (2003) Biochemistry 42(11):3265-3274) was used (FIG. 6 and Table 8). Effective quenching of fluorescence by acrylamide would occur only for tryptophan residues exposed to polar parts of outer or inner leaflets of the bilayer. At the same time, tryptophan residues located in the middle of a membrane would be effectively quenched by 10-DN. The result of the dual quenching assay allows the determination of whether tryptophan residues are located in the middle of a membrane or close to the polar headgroups of the bilayer. […] Therefore, FRET assays were also performed (McIntyre J C & Sleight R G (1991) Biochemistry 30(51):11819-11827; Clausell et al. (2006) J Phys Chem B 110(9):4465-4471) (FIG. 7). First, POPC liposomes symmetrically-labeled with NBD dye were prepared. Then, membrane-impermeable dithionite was used to modify chemically and quench the fluorescence of NBD at the outer leaflet of the bilayer followed by removal of dithionite by gel filtration. As a result, asymmetrically-labeled liposomes with NBD only at the inner leaflet were obtained. The c[E4W5C] […] All other peptides are located at the outer leaflet of the bilayer at pH 8. Among c[(WE)4WC] (SEQ ID NO: 2), c[(WE)5WC] (SEQ ID NO: 3), and c[(WE)3WC] (SEQ ID NO: 1) peptides, the peptide with smallest cycle, c[(WE)3WC]

4T1 breast tumors = assay: Ex vivo fluorescence imaging of tumor and organs after IV Alexa546-peptides; type: in vivo, mice; conditions: after IV administration
Description: 4T1 breast tumors were established by subcutaneous injection of 4T1 cells (8×10^5 cells/0.1 mL/flank) in the right flank of adult female BALB/c mice (about 19-22 g weight) obtained from Harlan Laboratories. When tumors reached about 6 mm in diameter single tail vein injections of 100 μl of 40 μM Alexa546-peptides were performed. […] At 4 h post-injection euthanization and necropsy was performed followed by ex vivo imaging of tumor, kidneys, liver, lungs and muscle. Mean fluorescence intensity of tumor and organs was calculated using Kodak software.

HeLa cells [4] = conditions: at the concentrations used, treatment of 2-4 h; previous report; cited from earlier work
HeLa cells [5] = type: cell-based, Human; conditions: up to 4 μM, 3 h at pH 7.4 or 6.0, viability at 48 h
Description: HeLa cells were loaded in the wells of 96-well plates (5,000 cells per well) and incubated overnight. Growth medium was replaced with the medium without FBS pH 6.0 or pH 7.4 containing increasing amounts of peptide-amanitin construct (0.5, 1, 2, and 4 μM). The construct was removed after 3 h. After 48 h of incubation in standard growth medium, a colorimetric reagent (CellTiter 96 AQueous One Solution Assay, Promega) was added for 1 h followed by measuring absorbance at 490 nm to assess cell viability. All samples were prepared in triplicate.

Row | Compound | S, normalized area under the spectra, Pep-PC, pH3 [2] | S, normalized area under the spectra, Pep-PC, pH8 [2] | λmax, Pep-PC, pH3 [2] | λmax, Pep-PC, pH8 [2] | λmax, maximum position of the fluorescence spectrum, Pep, pH8 [2] | percentage of fluorescence quenching, Pep-PC + 10-DN pH3 [3] | percentage of fluorescence quenching, Pep-PC + 10-DN pH8 [3] | percentage of fluorescence quenching, Pep-PC + AC pH3 [3] | further results
1 | FITC-labeled peptide: c[E4W5C] peptide conjugated with Fluorescein-5-maleimide (cyclo(EEEEWWWWWC); also: conjugated with fluorescein-5-maleimide, site not given here) |  |  |  |  |  |  |  |  | fluorescent signal of cells after Trypan Blue quenching, low pH compared to normal pH (HeLa cells [1]): higher level of the fluorescent signal
2 | l(CW(EW)4) (CWEWEWEWEW) | 1.6 ± 0.4 | 2.3 ± 0.4 | 339.8 ± 0.6 nm | 346.6 ± 0.7 nm | 353.0 ± 0.7 nm | 31% | 20% | 56% | percentage of fluorescence quenching, Pep-PC + AC pH8 [3]: 81%
3 | c[(WE)5WC] (WEWEWEWEWEWC; cyclic) | 2.1 ± 0.3 | 1.5 ± 0.3 | 341.2 ± 0.4 nm | 346.7 ± 1.2 nm | 350.3 ± 0.2 nm | 40% | 1.3% | 68% | 
4 | N=C(N)NCCC[C@@H]1NC(=O)[C@H](CS)NC(=O)[C@H](Cc2c[nH]c3ccccc23)NC(=O)[C@H](Cc2c[nH]c3ccccc23)NC(=O)[C@H](Cc2c[nH]c3ccccc23)NC(=O)[C@H](Cc2c[nH]c3ccccc23)NC(=O)[C@H](Cc2c[nH]c3ccccc23)NC(=O)[C@H](CCCNC(=N)N)NC(=O)[C@H](CCCNC(=N)N)NC(=O)[C@H](CCCNC(=N)N)NC1=O [c[R4W5C]] |  |  |  |  |  |  |  |  | accumulation in tumor and other organs (4T1 breast tumors): very minimal
5 | c[(WE)3WC] (WEWEWEWC; cyclic) | 1.7 ± 0.3 | 0.9 ± 0.1 | 341.7 ± 0.2 nm | 349.1 ± 0.7 nm | 351.0 ± 0.2 nm | 47% | 6% | 63% | percentage of fluorescence quenching, Pep-PC + AC pH8 [3]: 83%
6 | CC[C@H](C)[C@@H]1NC(=O)CNC(=O)[C@@H]2Cc3c([nH]c4cc(O)ccc34)[S+]([O-])C[C@@H](NC(=O)CNC1=O)C(=O)N[C@@H](CC(N)=O)C(=O)N1C[C@H](O)C[C@H]1C(=O)N[C@@H]([C@@H](C)[C@@H](O)CO)C(=O)N2 (stereo partly drawn) [amanitin, alpha-amanitin] |  |  |  |  |  |  |  |  | cell death by amanitin alone (HeLa cells [4]): does not induce cell death
7 | c[E4W5C]-GMBS-amanitin (cyclo(EEEEWWWWWC); also: GMBS-linked amanitin conjugate) |  |  |  |  |  |  |  |  | cell death / cytotoxic effect of peptide-amanitin construct (HeLa cells [5]): reduced significantly at both pHs
